{"source": "patent US20090291890A1", "about": "(published 2009)", "key": {"[1]": {"target": "S222A/T239I-FVIIa (human)"}, "[2]": {"target": "Q286R-FVIIa (human)"}, "[3]": {"target": "S52A/S60A/V158D/E296V/M298Q-FVIIa (human)"}, "[4]": {"target": "T239I/M298Q/H373F-FVIIa (human)"}, "[5]": {"target": "A122N/G124S-FVIIa (human)"}, "[6]": {"target": "T239V/M298Q/H373F-FVIIa (human)"}, "[7]": {"target": "T239V/Q286R-FVIIa (human)"}, "[8]": {"target": "S52A/S60A/Q286R-FVIIa (human)"}, "[9]": {"target": "S222A/T239V-FVIIa (human)"}, "[10]": {"target": "Gla swapFIX/Q366V-FVIIa (human)"}, "[11]": {"target": "A175S-FVIIa (human)"}, "[12]": {"target": "T239I/Q286R/M298Q-FVIIa (human)"}, "[13]": {"target": "T128N/P129A/S222A/H257A/Q286R/M298Q-FVIIa (human)"}, "[14]": {"target": "A122N/G124S/A175S-FVIIa (human)"}, "[15]": {"target": "T128N/P129A/S222A-FVIIa (human)"}, "[16]": {"target": "Q286R/M298Q/Q366N-FVIIa (human)"}, "[17]": {"target": "V158D/Q286R/E296V/M298Q/H373F-FVIIa (human)"}, "[18]": {"target": "T239V/Q286R/M298Q-FVIIa (human)"}, "[19]": {"target": "K109N/A175S-FVIIa (human)"}, "[20]": {"target": "Gla swap FIX/Q286R/M298Q-FVIIa (human)"}, "[21]": {"target": "T128N/P129A/T239I/Q286R/M298Q-FVIIa (human)"}, "[22]": {"target": "M298Q/H373F-FVIIa (human)"}, "[23]": {"target": "Gla swap FIX/S222A/T239V/Q286R-FVIIa (human)"}, "[24]": {"target": "T128N/P129A/Q286R/M298Q-FVIIa (human)"}, "[25]": {"target": "A122N/G124S/A175S/Q366V-FVIIa (human)"}, "[26]": {"target": "T128N/P129A/A175S/Q286R/M298Q/H373F-FVIIa (human)"}, "[27]": {"target": "{Gla swap FIX/K43I}/Q286R/M298Q-FVIIa (human)"}, "[28]": {"target": "T128N/P129A-FVIIa (human)"}, "[29]": {"target": "S222A/Q286R/M298Q/H373F-FVIIa (human)"}, "[30]": {"target": "Gla swap FIX/S222A/Q286R/M298Q/H373F-FVIIa (human)"}, "[31]": {"target": "T239I/Q286R/M298Q/Q366N-FVIIa (human)"}, "[32]": {"target": "T128N/P129A/Q286R/M298Q/H373F-FVIIa (human)"}, "[33]": {"target": "T128N/P129A/Q286R/M298Q/Q366N-FVIIa (human)"}, "[34]": {"target": "T128N/P129A/A175S/Q286R/M298Q-FVIIa (human)"}, "[35]": {"target": "M298Q/Q366N/H373F-FVIIa (human)"}, "[36]": {"target": "H257S-FVIIa (human)"}, "[37]": {"target": "S52A/S60A-FVIIa (human)"}}, "note": "“And” between values parts separate entries of the source, which are not always exact repeats. Equal values may be shown once.", "data": [{"substance": "antithrombin III", "values": [{"measurement": "K0.5", "setting": "[1]", "value": 1150, "unit": "nM"}, {"measurement": "K0.5", "setting": "[2]", "value": 1090, "unit": "nM"}, {"measurement": "K0.5", "setting": "[3]", "value": 78.8, "unit": "nM"}, {"measurement": "K0.5", "setting": "[4]", "value": 179, "unit": "nM"}, {"measurement": "K0.5", "setting": "[5]", "value": 372, "unit": "nM"}, {"measurement": "K0.5", "setting": "[6]", "value": 46.6, "unit": "nM"}, {"measurement": "K0.5", "setting": "[7]", "value": 1790, "unit": "nM"}, {"measurement": "K0.5", "setting": "[8]", "value": 1320, "unit": "nM"}, {"measurement": "K0.5", "setting": "[9]", "value": 967, "unit": "nM"}, {"measurement": "K0.5", "setting": "[10]", "value": 108, "unit": "nM"}, {"measurement": "K0.5", "setting": "[11]", "value": 1330, "unit": "nM"}, {"measurement": "K0.5", "setting": "[12]", "value": 1610, "unit": "nM"}, {"measurement": "K0.5", "setting": "[13]", "value": "653 nM and 328 nM"}, {"measurement": "K0.5", "setting": "[14]", "value": 1350, "unit": "nM"}, {"measurement": "K0.5", "setting": "[15]", "value": 401, "unit": "nM"}, {"measurement": "K0.5", "setting": "[16]", "value": 324, "unit": "nM"}, {"measurement": "K0.5", "setting": "[17]", "value": 62.1, "unit": "nM"}, {"measurement": "K0.5", "setting": "[18]", "value": 3.63, "unit": "µM"}, {"measurement": "K0.5", "setting": "[19]", "value": 2030, "unit": "nM"}, {"measurement": "K0.5", "setting": "[20]", "value": "282 nM and 238 nM"}, {"measurement": "K0.5", "setting": "[21]", "value": 917, "unit": "nM"}, {"measurement": "K0.5", "setting": "[22]", "value": 81.7, "unit": "nM"}, {"measurement": "K0.5", "setting": "[23]", "value": 2440, "unit": "nM"}, {"measurement": "K0.5", "setting": "[24]", "value": 284, "unit": "nM"}, {"measurement": "K0.5", "setting": "[25]", "value": 336, "unit": "nM"}, {"measurement": "K0.5", "setting": "[26]", "value": 1130, "unit": "nM"}, {"measurement": "K0.5", "setting": "[27]", "value": "244 nM and 219 nM"}, {"measurement": "K0.5", "setting": "[28]", "value": 465, "unit": "nM"}, {"measurement": "K0.5", "setting": "[29]", "value": 163, "unit": "nM"}, {"measurement": "K0.5", "setting": "[30]", "value": 164, "unit": "nM"}, {"measurement": "K0.5", "setting": "[31]", "value": 813, "unit": "nM"}, {"measurement": "K0.5", "setting": "[32]", "value": 183, "unit": "nM"}, {"measurement": "K0.5", "setting": "[33]", "value": 346, "unit": "nM"}, {"measurement": "K0.5", "setting": "[34]", "value": 2310, "unit": "nM"}, {"measurement": "K0.5", "setting": "[35]", "value": 90.8, "unit": "nM"}, {"measurement": "K0.5", "setting": "[36]", "value": 723, "unit": "nM"}, {"measurement": "K0.5", "setting": "[37]", "value": 361, "unit": "nM"}]}]}
